The term EC50 denotes the concentration needed to bring the measured effect to its halfway point. One may read the Kd as the constant that tells how readily two partners part at equilibrium. The term koff denotes a measure of how fast the partners let go of each other. As usually defined, the kon is the rate constant with which the complex forms.

From patent US20250136694A1 (HARBOUR BIOMED SHANGHAI, published 2025) come the findings set out here.

Experiment [1] has as its target T1, human B7-H4 on the cell surface (human, UniProt Q7Z7D3 25-282).
T1 construct: whole, on cells; also called hu B7-H4; CHO-K1/huB7-H4
T1 sequence (looked up): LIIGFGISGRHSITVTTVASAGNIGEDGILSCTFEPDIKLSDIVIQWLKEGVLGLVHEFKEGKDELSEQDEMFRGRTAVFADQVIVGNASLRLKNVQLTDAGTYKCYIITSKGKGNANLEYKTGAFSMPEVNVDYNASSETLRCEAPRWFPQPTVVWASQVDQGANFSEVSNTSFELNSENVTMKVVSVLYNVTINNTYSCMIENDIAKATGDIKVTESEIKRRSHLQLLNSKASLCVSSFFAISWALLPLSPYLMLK
The experiment in a line: FACS, MDA-MB-468 cells. On the procedure:
(§1) Briefly, cells were digested and resuspended in PBS containing 2% FBS, and the cell density was adjusted to 1×10⁶ cells/mL. The cells were seeded in a 96-well V-bottom plate (Corning, Cat #3894) at 100 μL/well, followed by the addition of test antibodies 3-fold serially diluted at a concentration that was 2 times the final concentration, each at 100 μL/well. The cells were incubated away from light at 4° C. for 2 h. Then, the cells in each well were rinsed twice with 100 μL of pre-cooled PBS and centrifuged at 500 g at 4° C. for 5 min, and then the supernatant was discarded. […] The cells in each well were then rinsed twice with 100 μL of pre-cooled PBS and centrifuged at 500 g at 4° C. for 5 min, and then the supernatant was discarded. Finally, the cells in each well were resuspended in 200 μL of pre-cooled PBS, and the fluorescence signal values were read using ACEA Novocyte3000.

For experiment [2], the target named is T2, mouse B7-H4 on the cell surface (mouse, UniProt Q7TSP5 25-257).
T2 construct: whole, on cells; also called m B7-H4; CHO-K1/mB7-H4
T2 sequence (looked up): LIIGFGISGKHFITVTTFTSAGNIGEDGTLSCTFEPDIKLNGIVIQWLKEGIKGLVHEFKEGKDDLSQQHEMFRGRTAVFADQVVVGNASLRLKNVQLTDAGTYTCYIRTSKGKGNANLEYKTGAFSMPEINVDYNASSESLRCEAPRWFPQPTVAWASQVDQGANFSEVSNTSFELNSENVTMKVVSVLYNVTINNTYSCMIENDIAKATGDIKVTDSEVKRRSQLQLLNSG
Put plainly: FACS, CHO-K1/m B7-H4 cells. On the procedure:
as §1

The target in experiment [3] is T1, human B7-H4 on the cell surface. Put plainly: FACS, CHO-K1/hu B7-H4 cells. The method, then: as §1
Background: Flow cytometry measures light scatter and fluorescence of single cells or particles in a stream.

Experiment [4] concerns the target T3, cynomolgus monkey B7-H4 on the cell surface (cynomolgus monkey, UniProt A0A2K5U6P5 25-282).
T3 construct: whole, on cells; also called cyno B7-H4; CHO-K1/cynoB7-H4
T3 sequence: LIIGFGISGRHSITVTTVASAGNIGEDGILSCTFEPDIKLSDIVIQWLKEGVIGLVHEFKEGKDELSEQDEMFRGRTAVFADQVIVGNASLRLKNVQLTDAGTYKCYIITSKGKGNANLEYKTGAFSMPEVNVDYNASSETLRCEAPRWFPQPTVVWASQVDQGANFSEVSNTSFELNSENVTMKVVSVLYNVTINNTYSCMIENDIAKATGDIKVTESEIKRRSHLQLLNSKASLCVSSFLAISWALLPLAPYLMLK
The experiment in a line: FACS, CHO-K1/cyno B7-H4 cells. On the procedure:
as §1

The target of experiment [5] is T4, human B7-H4 (protein in solution, BLI) (human, UniProt Q7Z7D3 25-258, limits assumed).
T4 sequence (looked up): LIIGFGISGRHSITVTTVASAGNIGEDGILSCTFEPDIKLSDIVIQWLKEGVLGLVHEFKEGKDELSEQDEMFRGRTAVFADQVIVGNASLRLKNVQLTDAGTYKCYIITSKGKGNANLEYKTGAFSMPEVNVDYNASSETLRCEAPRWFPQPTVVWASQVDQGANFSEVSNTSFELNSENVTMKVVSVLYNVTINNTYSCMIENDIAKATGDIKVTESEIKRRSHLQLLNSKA
Put plainly: BLI (Octet), antibody captured on AHC sensor, antigen in solution. The method, then: The binding kinetics between the antigen and the antibody was analyzed by the biolayer interferometry (BLI) technique using an Octet Red 96e molecular interaction analyzer (Fortebio).
When the affinity of the antigen for the antibody was determined, the rotation speed of the sensor was set at 1000 rpm/min. […] Finally, the AHC sensor was immersed in a 10 mM glycine-hydrochloric acid solution at pH 1.5 for regeneration to elute the proteins bound to the sensor.
When data analysis was performed using Octet Data Analysis software (Fortebio, version 11.0), 0 nM was taken as a reference well, and reference subtraction was performed; the “1:1 Global fitting” method was selected to fit the data, and the kinetics parameters of the binding of antigens to antigen-binding proteins were calculated, with kₒₙ(1/Ms) values, kdis(1/s) values, and KD(M) values obtained (see Table 3 and FIG. 2).
In general terms: In BLI a coated tip is dipped into the sample, and binding shifts an interference pattern.

Experiment [6] addresses T1, human B7-H4 on the cell surface. Put plainly: FACS, CHO-K1/hu B7-H4 cells. On the procedure:
as §1
The source holds these as a separate data set.

Experiment [7] deals with T2, mouse B7-H4 on the cell surface. The experiment in a line: FACS on CHO-K1/mB7-H4 cells.

B1: PR006008 (antibody, IgG1, V domains shown)
VH: EVQLVESGGGLVQPGGSLRLSCAASGFTFTDFWMHWVRQVPGKGREWVSRISPDGSSTSYEDSVKGRFTISRDNAKNTVYLQMHGLRAEDTAVYYCTRFSTGWHRIEYFQHWGQGTLVTVSS
notes: also called R7004M6D4; anti-human B7-H4 HCAb monoclonal antibody
For the molecule B1, the EC50 in experiment [1] is 0.162 nM; in experiment [2] it was 0.403 nM; in experiment [3], 1.07 nM; in experiment [4], 0.432 nM. Besides, the entries for the “Maximum MFI” value in experiment [1] and in experiment [4] were 149000 MFI and 1.25e+06 MFI, respectively. In experiment [5], the Kd stood at 3.65 nM. In addition, the off-rate (koff) in experiment [5] is 0.00114 s⁻¹. The molecule also came in with a kon in experiment [5] of 312000 M⁻¹ s⁻¹.

B2: PR007441 (antibody, IgG1, V domains shown)
VH: EVQLVESGGGLVQPGGSLRLSCAASGFTFTDFWMHWVRQVPGKGREWVSRISPDSSSTSYEDSVKGRFTISRDNAKNTVYLQMHGLRAEDTAVYYCTRFSTGWHRIEYFQHWGQGTLVTVSS
notes: also called PTM variant (G55S) of PR006008
With B2, the concentration for a half-maximal effect (EC50) in experiment [1] was found to be 0.244 nM; in experiment [2], 0.617 nM; in experiment [4], 0.721 nM. In addition, the entries for the “Maximum MFI” value in experiment [1] and in experiment [4] were 148000 MFI and 1.26e+06 MFI, respectively.

B3: PR006004 (antibody, V domains shown)
VH: EVQLVESGGGLVQPGGSLRLSCAASGFAFSNYWMHWARQVPGKGRVWISRISGDGRSTSYADSVKGRFTISRDNAKNMVYLQMNNLRAEDTAVYYCARDRFGDDYYYGMNVWGQGTTVTVSS
notes: also called R7004M1A2; anti-human B7-H4 HCAb monoclonal antibody
Take B3: in experiment [1], the EC50 amounted to 5.19 nM and the “Maximum MFI” value came out at 183000 MFI. For the same molecule, the EC50 in experiment [3] came to 4.86 nM. Further, in experiment [6], the EC50 came to 2.75 nM and the “Maximum MFI” value is 1.63e+06 MFI. Further, in experiment [4], the EC50 was determined as 1.65 nM and the “Maximum MFI” value is 1.57e+06 MFI. Besides, the binding result in experiment [7] was “no binding (tested: 100 nM)”. In experiment [5], this molecule showed a Kd of 1.89 nM, a koff of 0.000396 s⁻¹ and an association rate constant (kon) of 210000 M⁻¹ s⁻¹.

B4: PR007440 (antibody, IgG1, V domains shown)
VH: EVQLVESGGGLVQPGGSLRLSCAASGFAFSNYWMHWARQVPGKGRVWISRISGDSRSTSYADSVKGRFTISRDNAKNMVYLQMNNLRAEDTAVYYCARDRFGDDYYYGMNVWGQGTTVTVSS
notes: also called PTM variant (G55S) of PR006004
For B4, in experiment [1], a half-maximal response (EC50) required 9.18 nM and the “Maximum MFI” value was 185000 MFI. Also, in experiment [4], the EC50 is 3.06 nM and the “Maximum MFI” value was 1.59e+06 MFI. In experiment [7], the binding result is recorded as “no binding (tested: 100 nM)”.

B5: PR007200 (antibody, IgG1, V domains shown)
VH: EVQLVESGGGLVQPGGSLRLSCAASGFAFSNYWMHWARQVPGKGREWISRISGDSSSTSYADSVKGRFTISRDNAKNMVYLQMNNLRAEDTAVYYCARDRFGDDYYYGMNVWGQGTTVTVSS
notes: also called charge variant of PR006004 (V46E, G55S, R56S)
Turning to B5, in experiment [6], the EC50 stood at 5.39 nM and the “Maximum MFI” value amounted to 1.48e+06 MFI.

B6: PR007203 (antibody, IgG1, V domains shown)
VH: EVQLVESGGGLVQPGGSLRLSCAASGFAFSNYWMHWARQVPGKGREWISRISGDSTSTSYEDSVKGRFTISRDNAKNMVYLQMNNLRAEDTAVYYCARDRFGDDYYYGMNVWGQGTTVTVSS
notes: also called charge variant of PR006004 (V46E, G55S, R56T, A61E)
Consider B6, for which, in experiment [6], the EC50 stood at 5.41 nM and the “Maximum MFI” value came out at 1.53e+06 MFI.

B7: PR007202 (antibody, IgG1, V domains shown)
VH: EVQLVESGGGLVQPGGSLRLSCAASGFAFSNYWMHWARQVPGKGREWISRISGDSTSTSYADSVKGRFTISRDNAKNMVYLQMNNLRAEDTAVYYCARDRFGDDYYYGMNVWGQGTTVTVSS
notes: also called charge variant of PR006004 (V46E, G55S, R56T)
Turning to B7, in experiment [6], the EC50 came out at 5.58 nM and the “Maximum MFI” value was 1.51e+06 MFI.

B8: PR007201 (antibody, IgG1, V domains shown)
VH: EVQLVESGGGLVQPGGSLRLSCAASGFAFSNYWMHWARQVPGKGREWISRISGDSSSTSYEDSVKGRFTISRDNAKNMVYLQMNNLRAEDTAVYYCARDRFGDDYYYGMNVWGQGTTVTVSS
notes: also called charge variant of PR006004 (V46E, G55S, R56S, A61E)
For the molecule B8, in experiment [6], the EC50 amounted to 5.5 nM and the “Maximum MFI” value amounted to 1.46e+06 MFI.

B9: PR007195 (antibody, IgG1, V domains shown)
VH: EVQLVESGGGLVQPGGSLRLSCAASGFAFSNYWMHWARQVPGKGREWISRISGDSDSTSYEDSVKGRFTISRDNAKNMVYLQMNNLRAEDTAVYYCARDRFGDDYYYGMNVWGQGTTVTVSS
notes: also called charge variant of PR006004 (V46E, G55S, R56D, A61E)
On to B9, for which, in experiment [6], the response was half-maximal at 5.65 nM (EC50) and the “Maximum MFI” value was 1.58e+06 MFI.

B10: PR007196 (antibody, IgG1, V domains shown)
VH: EVQLVESGGGLVQPGGSLRLSCAASGFAFSNYWMHWARQVPGKGREWISRISGDSESTSYADSVKGRFTISRDNAKNMVYLQMNNLRAEDTAVYYCARDRFGDDYYYGMNVWGQGTTVTVSS
notes: also called charge variant of PR006004 (V46E, G55S, R56E)
Turning to B10, in experiment [6], it took 3.72 nM to reach a half-maximal effect (EC50) and the “Maximum MFI” value was 971000 MFI.
